# Reference: the RNAGym collection of RNA variant scans (doi:10.1021/acssynbio.7b00057)
# B1: Pistol ribozyme (parent)
# chain: GGGUCGUUGUUCCAUAAUCGCGUGGAUAUGGCACGCAAGUUUCUACCGGGCACCGUAAAUGUCCGACUGGAGCCGUUCGGGCGGCUAUAAACAGACCUCAGGCCCGAAGCGUGGCGGCACCUGCCGCCGGUGGUAAAAAAGAUCGGAAGAGCACACGUCU
# Variants of: B1
# Experiment: aptazyme ON/OFF ratio, guanine; higher = stronger switching; co-transcriptional cleavage with and without guanine
row,Variant,aptazyme ON/OFF ratio
1,GGGUCGAGGGCUCAUAAUCGCGUGGAUAUGGCACGCAAGUUUCUACCGGGCACCGUAAAUGUCCGACUGGAGCCGUUCGGGCGGCUAUAAACAGACCUCAGGCCCGAAGCGUGGCGGCACCUGCCGCCGGUGGUAAAAAAGAUCGGAAGAGCACACGUCU [U7A U8G U10G U11C C12U],1.53
2,GGGUCGCUGAACCAUAAUCGCGUGGAUAUGGCACGCAAGUUUCUACCGGGCACCGUAAAUGUCCGACUGGAGCCGUUCGGGCGGCUAUAAACAGACCUCAGGCCCGAAGCGUGGCGGCACCUGCCGCCGGUGGUAAAAAAGAUCGGAAGAGCACACGUCU [U7C U10A U11A],1.29
3,GGGUCGACCGAUAAUAAUCGCGUGGAUAUGGCACGCAAGUUUCUACCGGGCACCGUAAAUGUCCGACUGGAGCCGUUCGGGCGGCUAUAAACAGACCUCAGGCCCGAAGCGUGGCGGCACCUGCCGCCGGUGGUAAAAAAGAUCGGAAGAGCACACGUCU [U7A U8C G9C U10G U11A C12U C13A],1.07
4,GGGUCGAUGAAGCAUAAUCGCGUGGAUAUGGCACGCAAGUUUCUACCGGGCACCGUAAAUGUCCGACUGGAGCCGUUCGGGCGGCUAUAAACAGACCUCAGGCCCGAAGCGUGGCGGCACCUGCCGCCGGUGGUAAAAAAGAUCGGAAGAGCACACGUCU [U7A U10A U11A C12G],1.18
5,GGGUCGAAGGUGUAUAAUCGCGUGGAUAUGGCACGCAAGUUUCUACCGGGCACCGUAAAUGUCCGACUGGAGCCGUUCGGGCGGCUAUAAACAGACCUCAGGCCCGAAGCGUGGCGGCACCUGCCGCCGGUGGUAAAAAAGAUCGGAAGAGCACACGUCU [U7A U8A U10G C12G C13U],1.28
6,GGGUCGCCCGUAAAUAAUCGCGUGGAUAUGGCACGCAAGUUUCUACCGGGCACCGUAAAUGUCCGACUGGAGCCGUUCGGGCGGCUAUAAACAGACCUCAGGCCCGAAGCGUGGCGGCACCUGCCGCCGGUGGUAAAAAAGAUCGGAAGAGCACACGUCU [U7C U8C G9C U10G C12A C13A],1.1
7,GGGUCGCCCCUCUAUAAUCGCGUGGAUAUGGCACGCAAGUUUCUACCGGGCACCGUAAAUGUCCGACUGGAGCCGUUCGGGCGGCUAUAAACAGACCUCAGGCCCGAAGCGUGGCGGCACCUGCCGCCGGUGGUAAAAAAGAUCGGAAGAGCACACGUCU [U7C U8C G9C U10C C13U],2.85
8,GGGUCGGAAAGGGAUAAUCGCGUGGAUAUGGCACGCAAGUUUCUACCGGGCACCGUAAAUGUCCGACUGGAGCCGUUCGGGCGGCUAUAAACAGACCUCAGGCCCGAAGCGUGGCGGCACCUGCCGCCGGUGGUAAAAAAGAUCGGAAGAGCACACGUCU [U7G U8A G9A U10A U11G C12G C13G],1.12
9,GGGUCGUCAUAAAAUAAUCGCGUGGAUAUGGCACGCAAGUUUCUACCGGGCACCGUAAAUGUCCGACUGGAGCCGUUCGGGCGGCUAUAAACAGACCUCAGGCCCGAAGCGUGGCGGCACCUGCCGCCGGUGGUAAAAAAGAUCGGAAGAGCACACGUCU [U8C G9A U11A C12A C13A],1.15
10,GGGUCGCACAGCGAUAAUCGCGUGGAUAUGGCACGCAAGUUUCUACCGGGCACCGUAAAUGUCCGACUGGAGCCGUUCGGGCGGCUAUAAACAGACCUCAGGCCCGAAGCGUGGCGGCACCUGCCGCCGGUGGUAAAAAAGAUCGGAAGAGCACACGUCU [U7C U8A G9C U10A U11G C13G],1.02
11,GGGUCGGACCCCUAUAAUCGCGUGGAUAUGGCACGCAAGUUUCUACCGGGCACCGUAAAUGUCCGACUGGAGCCGUUCGGGCGGCUAUAAACAGACCUCAGGCCCGAAGCGUGGCGGCACCUGCCGCCGGUGGUAAAAAAGAUCGGAAGAGCACACGUCU [U7G U8A G9C U10C U11C C13U],1.03
12,GGGUCGGGAGCACAUAAUCGCGUGGAUAUGGCACGCAAGUUUCUACCGGGCACCGUAAAUGUCCGACUGGAGCCGUUCGGGCGGCUAUAAACAGACCUCAGGCCCGAAGCGUGGCGGCACCUGCCGCCGGUGGUAAAAAAGAUCGGAAGAGCACACGUCU [U7G U8G G9A U10G U11C C12A],1.4
13,GGGUCGUUGUCUGAUAAUCGCGUGGAUAUGGCACGCAAGUUUCUACCGGGCACCGUAAAUGUCCGACUGGAGCCGUUCGGGCGGCUAUAAACAGACCUCAGGCCCGAAGCGUGGCGGCACCUGCCGCCGGUGGUAAAAAAGAUCGGAAGAGCACACGUCU [U11C C12U C13G],1.43
14,GGGUCGCUCUUCAAUAAUCGCGUGGAUAUGGCACGCAAGUUUCUACCGGGCACCGUAAAUGUCCGACUGGAGCCGUUCGGGCGGCUAUAAACAGACCUCAGGCCCGAAGCGUGGCGGCACCUGCCGCCGGUGGUAAAAAAGAUCGGAAGAGCACACGUCU [U7C G9C C13A],1.03
15,GGGUCGCUGGGGGAUAAUCGCGUGGAUAUGGCACGCAAGUUUCUACCGGGCACCGUAAAUGUCCGACUGGAGCCGUUCGGGCGGCUAUAAACAGACCUCAGGCCCGAAGCGUGGCGGCACCUGCCGCCGGUGGUAAAAAAGAUCGGAAGAGCACACGUCU [U7C U10G U11G C12G C13G],0.991
16,GGGUCGUUGUUGAAUAAUCGCGUGGAUAUGGCACGCAAGUUUCUACCGGGCACCGUAAAUGUCCGACUGGAGCCGUUCGGGCGGCUAUAAACAGACCUCAGGCCCGAAGCGUGGCGGCACCUGCCGCCGGUGGUAAAAAAGAUCGGAAGAGCACACGUCU [C12G C13A],1.37
17,GGGUCGACCCAAGAUAAUCGCGUGGAUAUGGCACGCAAGUUUCUACCGGGCACCGUAAAUGUCCGACUGGAGCCGUUCGGGCGGCUAUAAACAGACCUCAGGCCCGAAGCGUGGCGGCACCUGCCGCCGGUGGUAAAAAAGAUCGGAAGAGCACACGUCU [U7A U8C G9C U10C U11A C12A C13G],1.06
18,GGGUCGCCCGCUUAUAAUCGCGUGGAUAUGGCACGCAAGUUUCUACCGGGCACCGUAAAUGUCCGACUGGAGCCGUUCGGGCGGCUAUAAACAGACCUCAGGCCCGAAGCGUGGCGGCACCUGCCGCCGGUGGUAAAAAAGAUCGGAAGAGCACACGUCU [U7C U8C G9C U10G U11C C12U C13U],1.17

row,Variant,aptazyme ON/OFF ratio
1,GGGUCGGGCUGCGAUAAUCGCGUGGAUAUGGCACGCAAGUUUCUACCGGGCACCGUAAAUGUCCGACUGGAGCCGUUCGGGCGGCUAUAAACAGACCUCAGGCCCGAAGCGUGGCGGCACCUGCCGCCGGUGGUAAAAAAGAUCGGAAGAGCACACGUCU [U7G U8G G9C U11G C13G],1.16
2,GGGUCGGCCGAGAAUAAUCGCGUGGAUAUGGCACGCAAGUUUCUACCGGGCACCGUAAAUGUCCGACUGGAGCCGUUCGGGCGGCUAUAAACAGACCUCAGGCCCGAAGCGUGGCGGCACCUGCCGCCGGUGGUAAAAAAGAUCGGAAGAGCACACGUCU [U7G U8C G9C U10G U11A C12G C13A],1.07
3,GGGUCGUUCACUAAUAAUCGCGUGGAUAUGGCACGCAAGUUUCUACCGGGCACCGUAAAUGUCCGACUGGAGCCGUUCGGGCGGCUAUAAACAGACCUCAGGCCCGAAGCGUGGCGGCACCUGCCGCCGGUGGUAAAAAAGAUCGGAAGAGCACACGUCU [G9C U10A U11C C12U C13A],1.25
4,GGGUCGCUCCUCUAUAAUCGCGUGGAUAUGGCACGCAAGUUUCUACCGGGCACCGUAAAUGUCCGACUGGAGCCGUUCGGGCGGCUAUAAACAGACCUCAGGCCCGAAGCGUGGCGGCACCUGCCGCCGGUGGUAAAAAAGAUCGGAAGAGCACACGUCU [U7C G9C U10C C13U],1.08
5,GGGUCGUAAGAAGAUAAUCGCGUGGAUAUGGCACGCAAGUUUCUACCGGGCACCGUAAAUGUCCGACUGGAGCCGUUCGGGCGGCUAUAAACAGACCUCAGGCCCGAAGCGUGGCGGCACCUGCCGCCGGUGGUAAAAAAGAUCGGAAGAGCACACGUCU [U8A G9A U10G U11A C12A C13G],1.24
6,GGGUCGGGUCUGUAUAAUCGCGUGGAUAUGGCACGCAAGUUUCUACCGGGCACCGUAAAUGUCCGACUGGAGCCGUUCGGGCGGCUAUAAACAGACCUCAGGCCCGAAGCGUGGCGGCACCUGCCGCCGGUGGUAAAAAAGAUCGGAAGAGCACACGUCU [U7G U8G G9U U10C C12G C13U],1.25
7,GGGUCGUGUCUAAAUAAUCGCGUGGAUAUGGCACGCAAGUUUCUACCGGGCACCGUAAAUGUCCGACUGGAGCCGUUCGGGCGGCUAUAAACAGACCUCAGGCCCGAAGCGUGGCGGCACCUGCCGCCGGUGGUAAAAAAGAUCGGAAGAGCACACGUCU [U8G G9U U10C C12A C13A],1.2
8,GGGUCGUACAAUCAUAAUCGCGUGGAUAUGGCACGCAAGUUUCUACCGGGCACCGUAAAUGUCCGACUGGAGCCGUUCGGGCGGCUAUAAACAGACCUCAGGCCCGAAGCGUGGCGGCACCUGCCGCCGGUGGUAAAAAAGAUCGGAAGAGCACACGUCU [U8A G9C U10A U11A C12U],1.24
9,GGGUCGGGAUUUUAUAAUCGCGUGGAUAUGGCACGCAAGUUUCUACCGGGCACCGUAAAUGUCCGACUGGAGCCGUUCGGGCGGCUAUAAACAGACCUCAGGCCCGAAGCGUGGCGGCACCUGCCGCCGGUGGUAAAAAAGAUCGGAAGAGCACACGUCU [U7G U8G G9A C12U C13U],1.41
10,GGGUCGAGCGCCUAUAAUCGCGUGGAUAUGGCACGCAAGUUUCUACCGGGCACCGUAAAUGUCCGACUGGAGCCGUUCGGGCGGCUAUAAACAGACCUCAGGCCCGAAGCGUGGCGGCACCUGCCGCCGGUGGUAAAAAAGAUCGGAAGAGCACACGUCU [U7A U8G G9C U10G U11C C13U],1.04
11,GGGUCGGCGAGUUAUAAUCGCGUGGAUAUGGCACGCAAGUUUCUACCGGGCACCGUAAAUGUCCGACUGGAGCCGUUCGGGCGGCUAUAAACAGACCUCAGGCCCGAAGCGUGGCGGCACCUGCCGCCGGUGGUAAAAAAGAUCGGAAGAGCACACGUCU [U7G U8C U10A U11G C12U C13U],1.16
12,GGGUCGUCGCAUGAUAAUCGCGUGGAUAUGGCACGCAAGUUUCUACCGGGCACCGUAAAUGUCCGACUGGAGCCGUUCGGGCGGCUAUAAACAGACCUCAGGCCCGAAGCGUGGCGGCACCUGCCGCCGGUGGUAAAAAAGAUCGGAAGAGCACACGUCU [U8C U10C U11A C12U C13G],1.23
13,GGGUCGGCCCCUGAUAAUCGCGUGGAUAUGGCACGCAAGUUUCUACCGGGCACCGUAAAUGUCCGACUGGAGCCGUUCGGGCGGCUAUAAACAGACCUCAGGCCCGAAGCGUGGCGGCACCUGCCGCCGGUGGUAAAAAAGAUCGGAAGAGCACACGUCU [U7G U8C G9C U10C U11C C12U C13G],1.21
14,GGGUCGUAGGCAAAUAAUCGCGUGGAUAUGGCACGCAAGUUUCUACCGGGCACCGUAAAUGUCCGACUGGAGCCGUUCGGGCGGCUAUAAACAGACCUCAGGCCCGAAGCGUGGCGGCACCUGCCGCCGGUGGUAAAAAAGAUCGGAAGAGCACACGUCU [U8A U10G U11C C12A C13A],1.26
15,GGGUCGACUAUGGAUAAUCGCGUGGAUAUGGCACGCAAGUUUCUACCGGGCACCGUAAAUGUCCGACUGGAGCCGUUCGGGCGGCUAUAAACAGACCUCAGGCCCGAAGCGUGGCGGCACCUGCCGCCGGUGGUAAAAAAGAUCGGAAGAGCACACGUCU [U7A U8C G9U U10A C12G C13G],1.22
16,GGGUCGUGAGAUUAUAAUCGCGUGGAUAUGGCACGCAAGUUUCUACCGGGCACCGUAAAUGUCCGACUGGAGCCGUUCGGGCGGCUAUAAACAGACCUCAGGCCCGAAGCGUGGCGGCACCUGCCGCCGGUGGUAAAAAAGAUCGGAAGAGCACACGUCU [U8G G9A U10G U11A C12U C13U],1.47
17,GGGUCGGCAAAGCAUAAUCGCGUGGAUAUGGCACGCAAGUUUCUACCGGGCACCGUAAAUGUCCGACUGGAGCCGUUCGGGCGGCUAUAAACAGACCUCAGGCCCGAAGCGUGGCGGCACCUGCCGCCGGUGGUAAAAAAGAUCGGAAGAGCACACGUCU [U7G U8C G9A U10A U11A C12G],1.22
18,GGGUCGAAAGCUCAUAAUCGCGUGGAUAUGGCACGCAAGUUUCUACCGGGCACCGUAAAUGUCCGACUGGAGCCGUUCGGGCGGCUAUAAACAGACCUCAGGCCCGAAGCGUGGCGGCACCUGCCGCCGGUGGUAAAAAAGAUCGGAAGAGCACACGUCU [U7A U8A G9A U10G U11C C12U],1.05
